The results in this text go back to article PMC9617004, “Cloning and characterization of thermophilic endoglucanase and its application in the transformation of ginsenosides” (AMB Express, 2022).

Common to all, as to test: HPLC of ginsenoside conversion, Michaelis-Menten
Common to all, as to format: biochemical, Fervidobacterium pennivorans
Common to all, as to conditions: 50 mM phosphate-citrate, pH 6.0, 95 °C, substrate range stated as 0.5 to 10.0 mM (printed unit µM may be mM)

Substrate in series [1]: CC(C)=CCC[C@](C)(O[C@@H]1O[C@H](CO)[C@@H](O)[C@H](O)[C@H]1O)[C@H]1CC[C@]2(C)[C@@H]1[C@H](O)C[C@@H]1[C@@]3(C)CC[C@H](O[C@@H]4O[C@H](CO)[C@@H](O)[C@H](O)[C@H]4O[C@@H]4O[C@H](CO)[C@@H](O)[C@H](O)[C@H]4O)C(C)(C)[C@@H]3CC[C@]12C
The source says:
(§1) HPLC of ginsenoside conversion, Michaelis-Menten on BcelFp

Substrate in series [2]: CC(C)=CCC[C@](C)(O[C@@H]1O[C@H](CO[C@@H]2O[C@H](CO)[C@@H](O)[C@H](O)[C@H]2O)[C@@H](O)[C@H](O)[C@H]1O)[C@H]1CC[C@]2(C)[C@@H]1[C@H](O)C[C@@H]1[C@@]3(C)CC[C@H](O[C@@H]4O[C@H](CO)[C@@H](O)[C@H](O)[C@H]4O[C@@H]4O[C@H](CO)[C@@H](O)[C@H](O)[C@H]4O)C(C)(C)[C@@H]3CC[C@]12C
Excerpt: as §1

Substrate in series [3]: [H][C@@]1(O[C@@H]2[C@@H](O)[C@H](O)[C@@H](CO)O[C@@]2([H])O[C@H]2CC[C@]3(C)[C@@]4([H])C[C@@H](O)[C@]5([H])[C@@]([H])([C@](C)(CCC=C(C)C)O[C@@H]6O[C@H](CO[C@@H]7OC[C@H](O)[C@H](O)[C@H]7O)[C@@H](O)[C@H](O)[C@H]6O)CC[C@@]5(C)[C@]4(C)CC[C@@]3([H])C2(C)C)O[C@H](CO)[C@@H](O)[C@H](O)[C@H]1O
Excerpt: as §1

B1: BcelFp (Fervidobacterium pennivorans DSM 9078) (protein)
chain: MDQSVAESDSNSALEYNKIIGKGVNIGNALEAPFEGAWGVRIEDEYFEIIKKRGFDSVRIPIRWSAHISEKPPYDIDRNFLERVKHVVDRALENNLTVIINTHHFEELYQEPDKYGNVLVEIWRQIAKFFKDYPENLFFEIYNEPAQNLTAEKWNELYPKVLKVIRESNPTRIVIIDAPNWAHYSAVRSLKLVNDKRIIVSFHYYEPFNFTHQGAEWVNPTPPVGVKWNGEEWEINQIRSHFKYVSDWAKQNKVPIFLGEFGAYSKADMDSRVKWTESVRKMAEEFGFSYAYWEFCAGFGIYDRWSQNWIEPLATAVVGESKE
notes: 323 residues (969 bp), N-terminal His-tag, pET28a BamHI/XhoI, E. coli BL21-CodonPlus(DE3)-RIL, Ni-NTA; calculated 37,892 Da, about 38 kDa by SDS-PAGE; forward primer starts … (MDQSVA)
For the protein B1, the Vmax in series [1] was 156 µM/min; in series [2], 382 µM/min; in series [3], 315 µM/min. In addition, the kcat/Km stood at 27900 M⁻¹ s⁻¹ in series [1], 12500 M⁻¹ s⁻¹ in series [2] and 9390 M⁻¹ s⁻¹ in series [3]. The figures for the Km in series [1] (unit of the source corrected), in series [2] (unit of the source corrected) and in series [3] (unit of the source corrected) were 670 µM, 3660 µM and 4020 µM, respectively.

One may read the Vmax as the top rate of the reaction or transport when substrate is in excess. As usually defined, the kcat/Km is the second-order rate constant that governs catalysis at low substrate concentration. A word on the Km: it is the substrate concentration at which the rate is half of its maximum.
